Here are results for 2 molecules from article PMC7877763 (2021).

Numbering of substitutions follows the chain as printed. Names and notes keep the numbering of the source.

The target of experiment [1] is GPR-foldon (foldon stabilized collagen model peptide containing a (GPP)5GPR(GPP)6 collagen sequence) (biotinylated (site not stated) for the BLI experiment). Briefly: BLI. A general note: BLI is a label-free optical method that tracks binding on a fibre tip over time.
Experiment [2] deals with full length pepsinized type I collagen from mouse tail tendon (mouse, UniProt P11087 152-1207; Q01149 86-1125). Briefly: SPR. (In SPR one partner is held on a chip, and binding of the other changes the refractive index at the surface.)
full length pepsinized type I collagen from mouse tail tendon, sequence (P11087 152-1207, chain 1 of 2): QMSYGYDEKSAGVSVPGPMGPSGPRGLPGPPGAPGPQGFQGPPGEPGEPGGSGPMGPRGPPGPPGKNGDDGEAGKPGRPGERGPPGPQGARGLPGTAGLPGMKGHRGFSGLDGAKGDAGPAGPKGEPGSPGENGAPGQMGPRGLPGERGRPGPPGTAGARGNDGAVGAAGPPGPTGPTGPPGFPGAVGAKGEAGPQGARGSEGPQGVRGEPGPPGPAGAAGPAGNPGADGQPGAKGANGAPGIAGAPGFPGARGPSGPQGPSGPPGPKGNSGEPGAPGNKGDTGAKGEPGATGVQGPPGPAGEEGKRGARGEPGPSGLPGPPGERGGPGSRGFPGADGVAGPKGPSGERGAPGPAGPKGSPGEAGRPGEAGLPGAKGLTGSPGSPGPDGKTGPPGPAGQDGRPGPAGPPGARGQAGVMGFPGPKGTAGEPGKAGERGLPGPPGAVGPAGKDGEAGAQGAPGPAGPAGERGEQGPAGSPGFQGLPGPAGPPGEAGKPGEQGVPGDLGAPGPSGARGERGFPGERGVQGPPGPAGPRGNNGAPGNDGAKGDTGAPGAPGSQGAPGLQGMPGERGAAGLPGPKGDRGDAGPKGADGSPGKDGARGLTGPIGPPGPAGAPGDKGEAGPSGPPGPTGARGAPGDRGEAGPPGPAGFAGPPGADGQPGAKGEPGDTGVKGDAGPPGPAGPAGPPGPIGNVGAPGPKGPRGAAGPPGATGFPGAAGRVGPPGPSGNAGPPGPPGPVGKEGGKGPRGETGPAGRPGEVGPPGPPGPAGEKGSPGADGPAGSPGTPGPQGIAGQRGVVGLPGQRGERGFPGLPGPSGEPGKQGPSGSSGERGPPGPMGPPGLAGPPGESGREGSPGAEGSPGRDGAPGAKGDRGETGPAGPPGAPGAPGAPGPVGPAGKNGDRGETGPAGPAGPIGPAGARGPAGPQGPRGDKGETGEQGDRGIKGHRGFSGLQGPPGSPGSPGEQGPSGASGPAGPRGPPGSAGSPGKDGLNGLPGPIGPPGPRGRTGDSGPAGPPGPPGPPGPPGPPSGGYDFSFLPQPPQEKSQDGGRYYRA
full length pepsinized type I collagen from mouse tail tendon, sequence (Q01149 86-1125, chain 2 of 2): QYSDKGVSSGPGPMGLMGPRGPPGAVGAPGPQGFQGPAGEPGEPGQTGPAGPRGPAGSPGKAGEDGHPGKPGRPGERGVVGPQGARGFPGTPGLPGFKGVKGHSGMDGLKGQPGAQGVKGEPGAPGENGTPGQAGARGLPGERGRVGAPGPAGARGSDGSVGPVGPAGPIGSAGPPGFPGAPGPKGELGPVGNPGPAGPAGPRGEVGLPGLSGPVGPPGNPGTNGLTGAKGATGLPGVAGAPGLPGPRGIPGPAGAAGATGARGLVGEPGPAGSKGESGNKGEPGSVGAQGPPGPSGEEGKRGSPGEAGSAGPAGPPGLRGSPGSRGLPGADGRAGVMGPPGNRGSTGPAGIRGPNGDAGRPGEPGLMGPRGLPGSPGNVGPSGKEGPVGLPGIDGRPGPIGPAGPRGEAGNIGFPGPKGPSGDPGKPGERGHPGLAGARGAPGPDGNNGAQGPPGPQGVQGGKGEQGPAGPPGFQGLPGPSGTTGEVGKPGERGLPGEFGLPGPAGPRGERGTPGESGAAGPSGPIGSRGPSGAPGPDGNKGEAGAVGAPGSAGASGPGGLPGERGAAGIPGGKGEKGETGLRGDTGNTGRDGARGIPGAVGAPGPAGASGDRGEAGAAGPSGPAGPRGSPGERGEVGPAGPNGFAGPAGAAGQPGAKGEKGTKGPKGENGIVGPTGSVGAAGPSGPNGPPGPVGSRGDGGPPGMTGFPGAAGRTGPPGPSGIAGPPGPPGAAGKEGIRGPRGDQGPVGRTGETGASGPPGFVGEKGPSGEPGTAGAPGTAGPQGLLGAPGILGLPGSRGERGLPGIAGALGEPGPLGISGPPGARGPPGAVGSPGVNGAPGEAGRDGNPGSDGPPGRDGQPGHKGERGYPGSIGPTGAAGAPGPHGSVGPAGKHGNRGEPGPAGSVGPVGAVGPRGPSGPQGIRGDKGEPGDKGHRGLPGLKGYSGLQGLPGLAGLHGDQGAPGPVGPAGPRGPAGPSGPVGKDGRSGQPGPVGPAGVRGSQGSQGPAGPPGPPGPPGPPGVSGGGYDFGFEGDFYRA

B1: recombinant canine HSP47-R222S (natural protein)
chain: LSPKAATLAERSAGLAFSLYQAMAKDQAVENILLSPVVVASSLGLVSLGGKATTASQAKAVLSAEQLRDEEVHAGLGELLRSLSNSTARNVTWKLGSRLYGPSSVSFAEDFVRSSKQHYNCEHSKINFRDKRSALQSINEWAAQTTDGKLPEVTKDVERTDGALLVNAMFFKPHWDEKFHHKMVDNSGFMVTRSYTVGVTMMHRTGLYNYYDDEKEKLQIVEMPLAHKLSSLIILMPHHVEPLERLEKLLTKEQLKIWMGKMQKKAVAISLPKGVVEVTHDLQKHLAGLGLTEAIDKNKADLSRMSGKKDLYLASVFHATAFEWDTEGNPFDQDIYGREELRSPKLFYADHPFIFLVRDTQSGSLLFIGRLVRPKGDKMRDEL
Take B1: the koff (commonly the first-order rate constant of dissociation) in experiment [1] came to 0.0186 s⁻¹; in experiment [2] it was 0.003 s⁻¹.

B2: recombinant wild-type canine HSP47 (natural protein)
chain: B1 chain with S187R
As to B2, the koff in experiment [1] stood at 0.0185 s⁻¹; in experiment [2], 0.011 s⁻¹.
